Values of other authors as cited in publication PMC7755605.

Molecular target: TRAF6 (Homo sapiens) (UniProt Q9Y4K3)
Sequence (Q9Y4K3 whole entry): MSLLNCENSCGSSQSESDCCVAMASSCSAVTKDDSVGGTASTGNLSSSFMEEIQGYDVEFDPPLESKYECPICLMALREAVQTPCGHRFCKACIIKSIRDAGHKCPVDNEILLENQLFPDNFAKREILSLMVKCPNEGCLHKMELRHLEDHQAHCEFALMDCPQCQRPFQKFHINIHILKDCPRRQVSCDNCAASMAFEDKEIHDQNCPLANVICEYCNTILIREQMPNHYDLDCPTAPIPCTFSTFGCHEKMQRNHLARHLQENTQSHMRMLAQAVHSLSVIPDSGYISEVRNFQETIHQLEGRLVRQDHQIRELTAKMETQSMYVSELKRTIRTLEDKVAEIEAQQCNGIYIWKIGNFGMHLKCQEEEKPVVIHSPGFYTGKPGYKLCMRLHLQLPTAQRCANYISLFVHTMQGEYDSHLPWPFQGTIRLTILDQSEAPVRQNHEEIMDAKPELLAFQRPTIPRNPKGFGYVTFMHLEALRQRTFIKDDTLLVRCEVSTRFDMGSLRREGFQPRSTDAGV

TRANCE-R, sequence (Q9Y6Q6 30-616): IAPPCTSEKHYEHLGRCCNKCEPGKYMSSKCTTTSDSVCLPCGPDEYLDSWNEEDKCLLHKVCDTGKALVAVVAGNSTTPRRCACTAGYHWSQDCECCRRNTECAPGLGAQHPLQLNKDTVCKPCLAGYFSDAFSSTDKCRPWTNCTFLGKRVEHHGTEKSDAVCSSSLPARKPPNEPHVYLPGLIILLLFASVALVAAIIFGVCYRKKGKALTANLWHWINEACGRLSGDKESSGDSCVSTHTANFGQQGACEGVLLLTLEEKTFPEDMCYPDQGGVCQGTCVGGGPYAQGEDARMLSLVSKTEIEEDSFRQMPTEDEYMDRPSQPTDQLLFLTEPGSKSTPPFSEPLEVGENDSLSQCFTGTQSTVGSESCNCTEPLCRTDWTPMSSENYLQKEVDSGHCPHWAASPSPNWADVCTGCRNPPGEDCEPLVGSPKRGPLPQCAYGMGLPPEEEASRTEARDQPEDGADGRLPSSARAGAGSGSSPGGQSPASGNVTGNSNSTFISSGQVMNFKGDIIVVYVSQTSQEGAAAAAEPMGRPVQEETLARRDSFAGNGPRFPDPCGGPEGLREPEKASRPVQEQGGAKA

## TRANCE-R (from UniProt Q9Y6Q6)
  Kd: 84 µM
